Experimental data: article PMC10093686, “Structural insights into acetylated histone ligand recognition by the BDP1 bromodomain of Plasmodium falciparum” (International journal of biological macromolecules, 2022)
Where two headings read alike, the source gives them in different places.

Columns and labels:
[1] = biological target: PfBDP1-BRD (residues 303–488 or 333–456), bromodomain of P. falciparum Bromodomain Protein 1, as used in ITC (P. falciparum) (UniProt Q8IJ72); assay: ITC; histone peptide (2.5–5.0 mM) in the syringe, PfBDP1-BRD (303–488 or 333–456; 100–200 μM) in the sample cell; 5°C; 20 mM sodium phosphate pH 7.5, 150 mM NaCl, 1 mM TCEP; 1:1 binding model, single set of identical sites
[2] = biological target: PfBDP1-BRD (residues 303–488 or 333–456), bromodomain of P. falciparum Bromodomain Protein 1, as used in ITC (P. falciparum) (UniProt Q8IJ72); assay: as above; remark: listed apart in the source

## H4K5acK8acK12acK16ac histone peptide (1–24), tetra-acetylated histone H4
[1]
  Kd: 117 µM
[2]
  Kd: 173 µM
